B3: Recombinant FLAG-epitope tagged HDAC6 (enzyme, not shown: small tags and cut ends)
chain: MTSTGQDSTTTRQRRSRQNPQSPPQDSSVTSKRNIKKGAVPRSIPNLAEVKKKGKMKKLGQAMEEDLIVGLQGMDLNLEAEALAGTGLVLDEQLNEFHCLWDDSFPEGPERLHAIKEQLIQEGLLDRCVSFQARFAEKEELMLVHSLEYIDLMETTQYMNEGELRVLADTYDSVYLHPNSYSCACLASGSVLRLVDAVLGAEIRNGMAIIRPPGHHAQHSLMDGYCMFNHVAVAARYAQQKHRIRRVLIVDWDVHHGQGTQFTFDQDPSVLYFSIHRYEQGRFWPHLKASNWSTTGFGQGQGYTINVPWNQVGMRDADYIAAFLHVLLPVALEFQPQLVLVAAGFDALQGDPKGEMAATPAGFAQLTHLLMGLAGGKLILSLEGGYNLRALAEGVSASLHTLLGDPCPMLESPGAPCRSAQASVSCALEALEPFWEVLVRSTETVERDNMEEDNVEESEEEGPWEPPVLPILTWPVLQSRTGLVYDQNMMNHCNLWDSHHPEVPQRILRIMCRLEELGLAGRCLTLTPRPATEAELLTCHSAEYVGHLRATEKMKTRELHRESSNFDSIYICPSTFACAQLATGAACRLVEAVLSGEVLNGAAVVRPPGHHAEQDAACGFCFFNSVAVAARHAQTISGHALRILIVDWDVHHGNGTQHMFEDDPSVLYVSLHRYDHGTFFPMGDEGASSQIGRAAGTGFTVNVAWNGPRMGDADYLAAWHRLVLPIAYEFNPELVLVSAGFDAARGDPLGGCQVSPEGYAHLTHLLMGLASGRIILILEGGYNLTSISESMAACTRSLLGDPPPLLTLPRPPLSGALASITETIQVHRRYWRSLRVMKVEDREGPSSSKLVTKKAPQPAKPRLAERMTTREKKVLEAGMGKVTSASFGEESTPGQTNSETAVVALTQDQPSEAATGGATLAQTISEAAIGGAMLGQTTSEEAVGGATPDQTTSEETVGGAILDQTTSEDAVGGATLGQTTSEEAVGGATLAQTISEAAMEGATLDQTTSEEAPGGTELIQTPLASSTDHQTPPTSPVQGTTPQISPSTLIGSLRTLELGSESQGASESQAPGEENLLGEAAGGQDMADSMLMQGSRGLTDQAIFYAVTPLPWCPHLVAVCPIPAAGLDVTQPCGDCGTIQENWVCLSCYQVYCGRYINGHMLQHHGNSGHPLVLSYIDLSAWCYYCQAYVHHQALLDVKNIAHQNKFGEDMPHPH
notes: Full length ORF with C-terminal FLAG tag in pBJ5, expressed in TAg Jurkat cells; also called HDAC6-FLAG; HD6

The target of one series is HDAC4-EGFP (human) (UniProt P56524). In words: cell-based or functional assay.
In series [1] the target is B3. In words: anti-FLAG co-immunoprecipitation from TAg Jurkat cells, Western blot.
Series [2] addresses T1, calyculin A-treated (hyperphosphorylated) HDAC4 (human, UniProt P56524 1-1084, hyperphosphorylated after calyculin A treatment of the cells; sites not determined).
T1 construct: HDAC4-FLAG immunopurified from TAg Jurkat cells treated 1.5 hours with 20 nM calyculin A; also called HDAC4-FLAG from calyculin A-treated cells
The series can be described thus: immunopurified HDAC4-FLAG from calyculin A-treated cells incubated 1 hour with untreated TAg Jurkat lysate, Western blot. The method, then:
These samples were analyzed for 14-3-3 and HDAC3 binding by Western blot analysis.

In a further series the target is T2, CHD4 (UniProt Q14839 1-1912, limits assumed).
T2 construct: Endogenous protein detected by Western blot in immunoprecipitates; also called CHD chromodomain protein
T2 sequence (Q14839 whole entry): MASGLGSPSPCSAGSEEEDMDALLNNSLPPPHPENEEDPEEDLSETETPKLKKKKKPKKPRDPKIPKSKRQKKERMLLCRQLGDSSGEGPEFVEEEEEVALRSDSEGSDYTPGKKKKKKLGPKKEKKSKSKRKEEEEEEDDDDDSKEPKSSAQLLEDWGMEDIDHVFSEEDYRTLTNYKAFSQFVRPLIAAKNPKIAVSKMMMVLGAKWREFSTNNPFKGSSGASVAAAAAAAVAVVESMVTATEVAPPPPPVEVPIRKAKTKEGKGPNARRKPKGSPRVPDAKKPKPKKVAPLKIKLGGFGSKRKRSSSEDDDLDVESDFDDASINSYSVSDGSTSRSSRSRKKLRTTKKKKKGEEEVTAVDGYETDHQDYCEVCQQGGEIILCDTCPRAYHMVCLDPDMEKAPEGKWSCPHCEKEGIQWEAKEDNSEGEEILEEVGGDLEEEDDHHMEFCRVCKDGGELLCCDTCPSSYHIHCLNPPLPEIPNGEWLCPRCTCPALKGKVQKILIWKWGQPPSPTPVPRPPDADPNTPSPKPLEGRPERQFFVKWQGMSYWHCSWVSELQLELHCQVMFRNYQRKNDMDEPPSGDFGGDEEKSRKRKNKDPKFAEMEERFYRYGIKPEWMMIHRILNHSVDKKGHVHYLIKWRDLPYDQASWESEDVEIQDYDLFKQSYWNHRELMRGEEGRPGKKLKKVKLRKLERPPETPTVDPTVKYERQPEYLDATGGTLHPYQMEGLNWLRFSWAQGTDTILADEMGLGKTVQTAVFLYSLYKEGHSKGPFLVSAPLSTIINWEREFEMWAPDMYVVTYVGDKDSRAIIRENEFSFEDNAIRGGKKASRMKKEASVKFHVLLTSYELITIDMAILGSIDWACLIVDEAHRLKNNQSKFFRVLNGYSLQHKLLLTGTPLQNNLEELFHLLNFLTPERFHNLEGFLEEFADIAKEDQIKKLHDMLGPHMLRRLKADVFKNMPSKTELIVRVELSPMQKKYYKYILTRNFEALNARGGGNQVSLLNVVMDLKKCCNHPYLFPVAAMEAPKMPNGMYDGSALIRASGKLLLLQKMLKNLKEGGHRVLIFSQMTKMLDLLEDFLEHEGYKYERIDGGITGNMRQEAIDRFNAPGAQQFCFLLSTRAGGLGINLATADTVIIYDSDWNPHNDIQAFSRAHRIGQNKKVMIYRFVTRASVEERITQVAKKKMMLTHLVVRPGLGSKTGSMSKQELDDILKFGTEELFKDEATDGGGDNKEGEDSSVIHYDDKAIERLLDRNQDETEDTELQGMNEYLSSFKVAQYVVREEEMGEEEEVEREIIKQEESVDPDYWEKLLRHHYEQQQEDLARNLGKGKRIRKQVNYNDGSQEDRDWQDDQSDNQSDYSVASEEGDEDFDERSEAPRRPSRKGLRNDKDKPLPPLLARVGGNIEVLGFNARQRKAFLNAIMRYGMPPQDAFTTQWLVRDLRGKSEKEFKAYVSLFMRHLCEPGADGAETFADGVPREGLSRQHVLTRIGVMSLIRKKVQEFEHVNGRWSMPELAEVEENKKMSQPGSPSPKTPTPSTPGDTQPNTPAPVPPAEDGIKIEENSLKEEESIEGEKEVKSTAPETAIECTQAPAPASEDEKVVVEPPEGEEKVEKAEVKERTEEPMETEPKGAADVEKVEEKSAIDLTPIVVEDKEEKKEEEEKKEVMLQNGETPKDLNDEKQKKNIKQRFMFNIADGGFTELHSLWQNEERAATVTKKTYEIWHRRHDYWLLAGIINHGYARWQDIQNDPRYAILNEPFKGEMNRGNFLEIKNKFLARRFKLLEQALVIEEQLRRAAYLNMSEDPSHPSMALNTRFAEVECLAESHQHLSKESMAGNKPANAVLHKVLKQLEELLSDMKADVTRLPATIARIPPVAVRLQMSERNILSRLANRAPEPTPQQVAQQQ
In words: anti-FLAG co-immunoprecipitation from TAg Jurkat cells, Western blot.

The target in the next series is T3, mSin3A (UniProt Q96ST3 1-1273).
T3 construct: Endogenous protein detected by Western blot in immunoprecipitates; also called co-repressor mSin3A
T3 sequence (looked up): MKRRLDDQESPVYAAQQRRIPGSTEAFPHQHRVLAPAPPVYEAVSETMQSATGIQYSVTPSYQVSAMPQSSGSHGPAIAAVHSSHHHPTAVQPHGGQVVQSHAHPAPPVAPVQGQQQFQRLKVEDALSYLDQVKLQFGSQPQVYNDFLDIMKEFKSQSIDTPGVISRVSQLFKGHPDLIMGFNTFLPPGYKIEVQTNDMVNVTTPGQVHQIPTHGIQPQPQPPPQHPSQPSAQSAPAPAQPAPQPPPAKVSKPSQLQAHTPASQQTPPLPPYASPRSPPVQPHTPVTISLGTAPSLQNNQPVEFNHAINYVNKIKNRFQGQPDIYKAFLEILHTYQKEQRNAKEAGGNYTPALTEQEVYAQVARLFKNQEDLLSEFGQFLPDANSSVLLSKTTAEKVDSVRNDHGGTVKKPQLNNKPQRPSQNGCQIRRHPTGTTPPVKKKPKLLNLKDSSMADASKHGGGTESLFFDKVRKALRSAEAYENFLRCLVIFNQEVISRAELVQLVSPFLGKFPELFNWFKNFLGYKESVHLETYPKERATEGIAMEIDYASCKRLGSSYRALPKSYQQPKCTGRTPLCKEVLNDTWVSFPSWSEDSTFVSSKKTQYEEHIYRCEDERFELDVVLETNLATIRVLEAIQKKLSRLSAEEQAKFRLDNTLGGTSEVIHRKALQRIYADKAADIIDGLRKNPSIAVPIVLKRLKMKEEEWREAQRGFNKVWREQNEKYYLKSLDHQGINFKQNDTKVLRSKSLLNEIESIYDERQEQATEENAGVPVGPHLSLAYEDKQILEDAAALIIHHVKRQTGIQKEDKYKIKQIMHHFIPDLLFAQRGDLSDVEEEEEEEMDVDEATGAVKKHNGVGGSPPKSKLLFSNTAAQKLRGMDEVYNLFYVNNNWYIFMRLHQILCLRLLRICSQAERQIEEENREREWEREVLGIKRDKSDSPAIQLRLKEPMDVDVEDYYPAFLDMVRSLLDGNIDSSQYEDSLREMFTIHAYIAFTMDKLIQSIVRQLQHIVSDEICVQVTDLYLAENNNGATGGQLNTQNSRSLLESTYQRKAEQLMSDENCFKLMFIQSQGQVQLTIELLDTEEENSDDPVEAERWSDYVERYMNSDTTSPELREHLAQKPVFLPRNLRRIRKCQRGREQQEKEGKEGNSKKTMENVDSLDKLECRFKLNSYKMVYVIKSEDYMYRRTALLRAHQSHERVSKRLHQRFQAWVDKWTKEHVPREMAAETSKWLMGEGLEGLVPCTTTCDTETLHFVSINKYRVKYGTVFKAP
Described as above.

Chain of 14-3-3 ε, P62258 (P62258 whole entry, looked up): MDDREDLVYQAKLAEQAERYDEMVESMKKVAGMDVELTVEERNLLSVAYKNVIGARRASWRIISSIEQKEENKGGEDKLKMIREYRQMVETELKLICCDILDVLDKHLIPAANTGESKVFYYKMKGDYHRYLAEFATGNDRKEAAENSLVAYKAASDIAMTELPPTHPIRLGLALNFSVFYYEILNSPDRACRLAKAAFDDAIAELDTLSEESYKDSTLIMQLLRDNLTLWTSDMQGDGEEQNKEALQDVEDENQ
Chain of 14-3-3 β, P31946 (P31946 whole entry, looked up): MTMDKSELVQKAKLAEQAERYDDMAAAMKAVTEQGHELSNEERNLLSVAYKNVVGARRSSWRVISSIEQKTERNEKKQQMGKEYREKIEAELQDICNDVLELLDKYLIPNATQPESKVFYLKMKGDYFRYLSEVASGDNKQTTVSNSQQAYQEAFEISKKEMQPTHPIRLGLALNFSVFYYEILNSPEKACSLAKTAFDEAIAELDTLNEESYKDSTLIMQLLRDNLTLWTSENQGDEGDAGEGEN

Turning to “myc-tagged 14-3-3 β (from UniProt P31946 1-246)”, in the series with HDAC4-EGFP (human), the cytoplasmic localization of HDAC4 (percent of U2OS cells), HDAC4-EGFP with simultaneous overexpression of 14-3-3 (% of the cells) was 97 and the cytoplasmic localization of HDAC4 (percent of U2OS cells), control: HDAC4-EGFP alone without overexpressed 14-3-3 (% of the cells) stood at 67.

B1: HDAC4 S246/466/632A triple mutant (protein)
chain: MSSQSHPDGLSGRDQPVELLNPARVNHMPSTVDVATALPLQVAPSAVPMDLRLDHQFSLPVAEPALREQQLQQELLALKQKQQIQRQILIAEFQRQHEQLSRQHEAQLHEHIKQQQEMLAMKHQQELLEHQRKLERHRQEQELEKQHREQKLQQLKNKEKGKESAVASTEVKMKLQEFVLNKKKALAHRNLNHCISSDPRYWYGKTQHSSLDQSSPPQSGVSTSYNHPVLGMYDAKDDFPLRKTAAEPNLKLRSRLKQKVAERRSSPLLRRKDGPVVTALKKRPLDVTDSACSSAPGSGPSSPNNSSGSVSAENGIAPAVPSIPAETSLAHRLVAREGSAAPLPLYTSPSLPNITLGLPATGPSAGTAGQQDTERLTLPALQQRLSLFPGTHLTPYLSTSPLERDGGAAHSPLLQHMVLLEQPPAQAPLVTGLGALPLHAQSLVGADRVSPSIHKLRQHRPLGRTQAAPLPQNAQALQHLVIQQQHQQFLEKHKQQFQQQQLQMNKIIPKPSEPARQPESHPEETEEELREHQALLDEPYLDRLPGQKEAHAQAGVQVKQEPIESDEEEAEPPREVEPGQRQPSEQELLFRQQALLLEQQRIHQLRNYQASMEAAGIPVSFGGHRPLSRAQASPASATFPVSVQEPPTKPRFTTGLVYDTLMLKHQCTCGSSSSHPEHAGRIQSIWSRLQETGLRGKCECIRGRKATLEELQTVHSEAHTLLYGTNPLNRQKLDSKKLLGSLASVFVRLPCGGVGVDSDTIWNEVHSAGAARLAVGCVVELVFKVATGELKNGFAVVRPPGHHAEESTPMGFCYFNSVAVAAKLLQQRLSVSKILIVDWDVHHGNGTQQAFYSDPSVLYMSLHRYDDGNFFPGSGAPDEVGTGPGVGFNVNMAFTGGLDPPMGDAEYLAAFRTVVMPIASEFAPDVVLVSSGFDAVEGHPTPLGGYNLSARCFGYLTKQLMGLAGGRIVLALEGGHDLTAICDASEACVSALLGNELDPLPEKVLQQRPNANAVRSMEKVMEIHSKYWRCLQRTTSTAGRSLIEAQTCENEEAETVTAMASLSVGVKPAEKRPDEEPMEEEPPL
Take B1: the “localization to the cytoplasm” value with 14-3-3 ε, P62258 was “localization of the triple mutant to the cytoplasm is dramatically decreased compared to the wild-type and single mutants”; with 14-3-3 β, P31946 it was “localization of the triple mutant to the cytoplasm is dramatically decreased compared to the wild-type and single mutants”.

B2: HDAC3 (enzyme, human, UniProt O15379 1-428, looked up)
chain: MAKTVAYFYDPDVGNFHYGAGHPMKPHRLALTHSLVLHYGLYKKMIVFKPYQASQHDMCRFHSEDYIDFLQRVSPTNMQGFTKSLNAFNVGDDCPVFPGLFEFCSRYTGASLQGATQLNNKICDIAINWAGGLHHAKKFEASGFCYVNDIVIGILELLKYHPRVLYIDIDIHHGDGVQEAFYLTDRVMTVSFHKYGNYFFPGTGDMYEVGAESGRYYCLNVPLRDGIDDQSYKHLFQPVINQVVDFYQPTCIVLQCGADSLGCDRLGCFNLSIRGHGECVEYVKSFNIPLLVLGGGGYTVRNVARCWTYETSLLVEEAISEELPYSEYFEYFAPDFTLHPDVSTRIENQNSRQYLDQIRQTIFENLKMLNHAPSVQIHDVPADLLTYDRTDEADAEERGPEENYSRPEAPNEFYDGDHDNDKESDVEI
notes: Endogenous protein co-immunoprecipitated from cell lysate; also used here for HDAC3 of staurosporine-treated cells; also called HDAC3 from untreated cells
B2: the figures for the binding result in series [1] and in series [2] were “no binding” and “binds”, respectively.

As for B3, the binding result in the series with CHD4 and with mSin3A was “no binding” in each case.

These data come from patent publication US20030129724A1 (Harvard, published 2003).
